Measured values reported in patent US20100240774A1, “USE OF HYDROPHOBIN POLYPEPTIDES AS PENETRATION ENHANCERS” (BASF SE, priority 2007, published 2010).

B1: hydrophobin B: fusion hydrophobin, SEQ ID NO: 26 from WO2007/14897; SEQ ID NO: 36 herein (yaad40-Xa-dewA-his) (protein)
chain: MAQTGTERVKRGMAEMQKGGVIMDVINAEQAKIAEEAGAVIEGRMRFIVSLLAFTAAATATALPASAAKNAKLATSAAFAKQAEGTTCNVGSIACCNSPAETNNDSLLSGLLGAGLLNGLSGNTGSACAKASLIDQLGLLALVDHTEEGPVCKNIVACCPEGTTNCVAVDNAGAGTKAEGSHHHHHH
modifications: fusion protein yaad40-Xa-dewA-his
B2: hydrophobin A: fusion hydrophobin, SEQ ID NO: 20 from WO2007/14897 and herein (yaad-Xa-dewA-his) (protein)
chain: MAQTGTERVKRGMAEMQKGGVIMDVINAEQAKIAEEAGAVAVMALERVPADIRAAGGVARMADPTIVEEVMNAVSIPVMAKARIGHIVEARVLEAMGVDYIDESEVLTPADEEFHLNKNEYTVPFVCGCRDLGEATRRIAEGASMLRTKGEPGTGNIVEAVRHMRKVNAQVRKVVAMSEDELMTEAKNLGAPYELLLQIKKDGKLPVVNFAAGGVATPADAALMMQLGADGVFVGSGIFKSDNPAKFAKAIVEATTHFTDYKLIAELSKELGTAMKGIEISNLLPEQRMQERGWRSIEGRMRFIVSLLAFTAAATATALPASAAKNAKLATSAAFAKQAEGTTCNVGSIACCNSPAETNNDSLLSGLLGAGLLNGLSGNTGSACAKASLIDQLGLLALVDHTEEGPVCKNIVACCPEGTTNCVAVDNAGAGTKAEGSHHHHHH
modifications: basf-yaad-Xa-dewA-his fusion of Bacillus subtilis yaaD and N-terminal factor Xa proteinase cleavage site and Aspergillus nidulans hydrophobin dewA and his6

Experiments:
[1] = tested on: NHDF (normal human dermal fibroblast) cultures; assay: antioxidative capacity (DCFH fluorescence after H2O2 stress) in NHDF cultures; assay type: cell-based; conditions: 24 h treatment, H2O2-induced radicals, protein concentration 0.001%, three independent runs, effect seen in two of three runs
From the text: The reference substances used were vitamin E (alpha-tocopheryl acetate), vitamin C (Mg ascorbyl phosphate) and quercetin. The test cells used were normal dermal connective tissue cells (fibroblasts) since these produced good signal strengths in the evaluation method. To ascertain the antioxidative properties of the solutions, the NHDF (normal human dermal fibroblast) cultures were sown out on 48-well culture vessels and cultivated until the culture surface was completely covered. The investigations were then carried out with these random cultures. Firstly, the cultures were treated for 24 h with the test solutions. […] The plates containing the cells were inserted into a fluorescence reader and the measurement was started with an introductory phase without stress. […] Low fluorescence thus indicates high antioxidative capacity. […] The y axis here represents the oxidative stress in the cells as the fluorescence which is emitted when free radicals react with the intracellular dye DCFH. […] All fluorescence values were corrected with the protein contents of the cultures following conclusion of the measurements (ascertained with Coomassie stain). This compensates for fluctuations in the cell number, which would also cause fluctuations in the fluorescence (on account of the varying amount of dye). […]

[2] = skin penetration of lactic acid: pH of pigskin after tape stripping; assay type: in vitro ADME, pig; conditions: for pH of the skin in the lower skin layers (after stripping) versus control without hydrophobin: hydrophobin coating and subsequent lactic acid treatment; for pH 1x stripping / pH 2x stripping / pH 3x stripping / pH without stripping: pigskin pretreated with 100 μl 0.1% hydrophobin 1.5 hours, then 15% strength lactic acid 10 minutes; for pH 1x stripping: after 1 Corneofix strip; for pH 2x stripping: after 2 Corneofix strips; for pH 3x stripping: after 3 Corneofix strips; for pH without stripping: mean of triple measurements
Protocol: • 1. Preparation of a 1% strength solution of hydrophobin A and B in Millipore water Dissolution of the hydrophobin by vigorous stirring on a magnetic stirrer at 900 rpm for 45 minutes. • 2. Preparation of 1 ml of a ready-to-use hydrophobin solution: • 800 μl Millipore water +100 μl 10-fold buffer (500 mM Tris, 10 mM CaCl2, pH 8) +100 μl hydrophobin solution
This corresponds to a 0.1% strength hydrophobin solution in 50 mM Tris 1 mM CaCl2 and pH 8
• 1. Frozen and dehaired pigskin (not blanched) was defrosted at room temperature. Marking of the application fields measuring ca. 2 cm×2 cm Application of the following solutions (stripping): • control (without solution)
• 2. Incubation of the solutions for 1.5 hours at RT
In order to remove any buffer salts present, all of the application fields were rinsed with 2×500 μl of Millipore water and dabbed with a paper towel. • 3. Application of in each case 100 μl of 15% strength lactic acid to all application fields
Incubation of the solutions for 10 minutes at room temperature
Removal of the excess lactic acid using a paper towel
Measurement of the pH of the pigskin on the respective application fields. Triple measurements were carried out and the mean was used. The water present after a pH measurement was dabbed off using a paper towel. A skin pH meter PH 905 from Courage & Khazaka was used.
Removal of the uppermost loose cell layer using a Corneofix adhesive strip from Courage & Khazaka
Renewed measurement of the pH
Overall, a Corneofix adhesive strip was used 3 times and the pH measured thereafter.

Molecule	oxidative stress / antioxidative potential (DCFH fluorescence) [1]	pH of the skin in the lower skin layers (after stripping) versus control without hydrophobin [2]	pH 1x stripping [2]	pH 2x stripping [2]	pH 3x stripping [2]	pH without stripping [2]
CC(=O)Oc1c(C)c(C)c2c(c1C)CCC(C)(CCC[C@H](C)CCC[C@H](C)CCCC(C)C)O2 (stereo partly drawn) [Tocopheryl acetate, alpha-tocopheryl acetate]	no antioxidative potential	–	–	–	–	–
B1	–	lower pH	2.89	3.08	3.26	2.64
B2	–	lower pH	3.08	3.39	3.63	2.62
